Results reported in IntAct's records for PubMed 30721249.

B1: Oxysterol-binding protein-related protein 1 (Homo sapiens), Q9BXW6 (parent)
chain: MNTEAEQQLLHHARNGNAEEVRQLLETMARNEVIADINCKGRSKSNLGWTPLHLACYFGHRQVVQDLLKAGAEVNVLNDMGDTPLHRAAFTGRKELVMLLLEYNADTTIVNGSGQTAKEVTHAEEIRSMLEAVERTQQRKLEELLLAAAREGKTTELTALLNRPNPPDVNCSDQLGNTPLHCAAYRAHKQCALKLLRSGADPNLKNKNDQKPLDLAQGAEMKHILVGNKVIYKALKRYEGPLWKSSRFFGWRLFWVVLEHGVLSWYRKQPDAVHNIYRQGCKHLTQAVCTVKSTDSCLFFIKCFDDTIHGFRVPKNSLQQSREDWLEAIEEHSAYSTHYCSQDQLTDEEEEDTVSAADLKKSLEKAQSCQQRLDREISNFLKMIKECDMAKEMLPSFLQKVEVVSEASRETCVALTDCLNLFTKQEGVRNFKLEQEQEKNKILSEALETLATEHHELEQSLVKGSPPASILSEDEFYDALSDSESERSLSRLEAVTARSFEEEGEHLGSRKHRMSEEKDCGGGDALSNGIKKHRTSLPSPMFSRNDFSIWSILRKCIGMELSKITMPVIFNEPLSFLQRLTEYMEHTYLIHKASSLSDPVERMQCVAAFAVSAVASQWERTGKPFNPLLGETYELVRDDLGFRLISEQVSHHPPISAFHAEGLNNDFIFHGSIYPKLKFWGKSVEAEPKGTITLELLEHNEAYTWTNPTCCVHNIIVGKLWIEQYGNVEIINHKTGDKCVLNFKPCGLFGKELHKVEGYIQDKSKKKLCALYGKWTECLYSVDPATFDAYKKNDKKNTEEKKNSKQMSTSEELDEMPVPDSESVFIIPGSVLLWRIAPRPPNSAQMYNFTSFAMVLNEVDKDMESVIPKTDCRLRPDIRAMENGEIDQASEEKKRLEEKQRAARKNRSKSEEDWKTRWFHQGPNPYNGAQDWIYSGSYWDRNYFNLPDIY

Variants of: B1
Settings: with rab7a_human RAB7A

Row | effect of a mutation on the interaction | Variant
1 | disrupting interaction strength | F58E
